Consider 16 molecules from patent publication US20120277143A1 (Janssen / Centocor, published 2012).

Where a chain is given by its changes, count along the chain named.

In assay [1] the target is T1, human IL4 (human, UniProt P05112 25-153, biotinylated in the SPR and competition assays (sites not given)).
T1 construct: Peprotech #200-04, mature protein produced in E. coli; also called hIL4; Interleukin 4
T1 sequence: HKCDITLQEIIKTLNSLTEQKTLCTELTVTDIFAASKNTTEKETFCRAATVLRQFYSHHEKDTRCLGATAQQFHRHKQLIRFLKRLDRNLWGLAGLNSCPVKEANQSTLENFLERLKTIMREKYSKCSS
As to the kind of experiment: SPR ProteOn, biotin-IL4 on neutravidin chip, 1:1 fit. Here is the method:
Purified binders selected as “hits” were ranked by their affinity on a ProteOn XPR-36 instrument (Bio-Rad). ProteOn is an optical biosensor instrument that measures protein-protein interactions in real time, based on Surface Plasmon Resonance technology similar to Biacore (GE). A rapid experimental protocol was performed as follows: On a GLC sensor chip (Bio-Rad), Neutravidin (Thermo Scientific) was covalently immobilized to a density of >5000 RU using amine coupling chemistry as described by the manufacturer. On one flow cell, biotinylated IL4 (Peprotech) was immobilized to a level of 250 RU, while another flow cell was used as reference, with neutravidin immobilized only. […] The retrieved values were used to rank the AR proteins by their affinity.

The target in assay [2] is T1, human IL4. As to the kind of experiment: cell-based or functional assay.
Assay [3] has as its target T1, human IL4. As to the kind of experiment: Luminex competition, 67 pM biotin-IL4 binding to IL4RA-Fc beads. Here is the method: For biotinylation of IL4, recombinant human IL4 (Peprotech) was biotinylated at a 4:1 ratio using EZ-Link NHS-LC-Biotin (Pierce, #21336) for 2 hours at RT. The protein was dialyzed in PBS overnight to remove excess biotinylation reagent. Competition binding for cynomologous IL4 (SEQ ID NO: 5) was performed using the isolated protein biotinylated in the same manner.
AR protein inhibition of IL4 binding to IL4 RA was assessed using IL4 RA-Fc (R&D Systems), comprising the Gly24-His232 which represents the ECD (SEQ ID NO: 5) fused to a human IgGl-Fc and therefor a disulfide linked homodimer. The protein was conjugated to carboxylated Luminex microspheres according to the manufacturer's protocol. For neutralization experiments, 5000 IL4RA-Fc conjugated beads in 50 μl were added to each well of a 96-well filter plate (Millipore). Biotinylated human IL4 was mixed with an appropriate dilution of AR protein in Luminex Assay Buffer (PBS, 1% BSA, pH 7.4) to give a final concentration of 67 pM IL4. The plate was incubated for 1 hour at RT in the dark on a plate shaker, set to shake vigorously to avoid bead aggregation. The plate was washed twice with 150 μl of wash buffer (PBS, 0.1% BSA, pH 7.4, 0.05% Tween-20) using a vacuum manifold followed by the addition of 50 μl of Streptavidin PE at 25 μg/ml and incubated at RT for 20 minutes. The plates were washed again and 150 μl of sheath fluid was added and the plate was placed on the shaker for 5 minute. Plates were read using a Luminex® 100 system; data were plotted as a function of AR protein concentration. IC₅₀ values were determined by fitting the data to the equation for sigmoidal dose response using PRISM software (GraphPAD PRISM) (Table 6).

B1: C06_14A4 (designed binder)
chain: DLGKKLLEAARAGQDDEVRILMANGADVNATDAWGLTPLHLAALLGHLEIVEVLLKHGADVNAHDETGFTPLHLAAVEGHLEIVEVLLKYGADVNASDILGRTPLHLAANFGHLEIVEVLLKYGADVNAQDKFGKTAFDISIDNGNEDLAEILQKLN
notes: ankyrin repeat protein; His-tagged, IMAC-purified
In the assay with human IL4 [1], B1 gave a Kd of 0.0858 nM, a koff of 2.73e-05 s⁻¹ and an on-rate constant (kon) of 318000 M⁻¹ s⁻¹.

B2: C06_4A7 (designed binder)
chain: B1 chain with T31E, A33D, L44M, H57Y, H64K, E66D
notes: as for B1
Turning to B2, the “HEK Stat6 Inhibition IC50” value in the assay with human IL4 [2] is 0.444 nM. This molecule also gave an IC50 with human IL4 [3] of 0.0443 nM.

B3: C06_42A11 (designed binder)
chain: B1 chain with R11S, A12V, R19H, Y123H
notes: as for B1
As for B3, in the assay with human IL4 [2], the “A549 TARC Inhibition IC50” value was found to be 0.325 nM, the “HEK Stat6 Inhibition IC50” value amounted to 0.0193 nM and the “Type 1 Complex inhibition IC50” value stood at 0.0032 nM. In the assay with human IL4 [1], this molecule gave a Kd of 0.0075 nM, a koff of 5.43e-06 s⁻¹ and a kon of 727000 M⁻¹ s⁻¹. The molecule also had an IC50 with human IL4 [3] of 0.0656 nM.

B4: C06_26H2 (designed binder)
chain: DLGKKLLEAARAGQDDEVRILMANGADVNAYDSSGDTPLHVAAIDGHLEIVEVLLKHGADVNASDASGDTPLHLAADFGHLKIVEVLLKHGADVNAEDMIGITPLHLAAYNGHLEIVEVLLKNGADVNASDVHGFTPLHLAAFIGHLGIVEVLLKYDADVNAQDKFGKTAFDISIDNRNEDLAEILQKLN
notes: as for B1
In the case of B4, in the assay with human IL4 [2], the “HEK Stat6 Inhibition IC50” value was 0.0033 nM. In the assay with human IL4 [1], this molecule returned an equilibrium dissociation constant (Kd) of 0.0712 nM, an off-rate constant (koff) of 0.000247 s⁻¹ and a kon of 3.47e+06 M⁻¹ s⁻¹. The molecule further registered a half-maximal inhibitory concentration (IC50) in the assay with human IL4 [3] of 0.0314 nM.

B5: C06_43G2 (designed binder)
chain: DLGKKLLEAARAGQDDEVRILMANGADVNAKDVTGETPLHLASWEGHLEIVEVLLKHGADVNAQDLFGITPLHLAAATDGHLEIVEVLLKNGADVNATDSNGFTPLHLAASYGHLEIVDVLLKNGADVNAHDFDGFTPLHLAASWGHLEIVEVLLKYGADVNAQDKFGKTAFDISIDNGNEDLAEILQKLN
notes: as for B1
With B5, in the assay with human IL4 [2], the “A549 TARC Inhibition IC50” value stood at 0.262 nM, the “HEK Stat6 Inhibition IC50” value worked out at 0.0016 nM and the “Type 1 Complex inhibition IC50” value worked out at 0.0008 nM. For the same molecule, in the assay with human IL4 [1], the affinity, expressed as Kd, was 0.0427 nM; the koff came to 5.98e-05 s⁻¹; the kon amounted to 1.4e+06 M⁻¹ s⁻¹. Moreover, the 50% inhibitory concentration (IC50) in the assay with human IL4 [3] was found to be 0.0235 nM.

B6: C06_20B8 (designed binder)
chain: DLGKKLLEAASAGQDDEVHILMANGADVNAVDHDGFTPLHLAAADGHLEIVEVLLKHGADVNADDNFGWTPLHLAAFFGHLEIVEVLLKHGADVNAKDQTGLTPLHLAAVDGHLEIVEVLLKHGADVNAQDKFGKTAFDISIDNGNEDLAEILQKLN
notes: as for B1
For the molecule B6, in the assay with human IL4 [2], the “A549 TARC Inhibition IC50” value was 0.288 nM, the “HEK Stat6 Inhibition IC50” value was 0.004 nM and the “Type 1 Complex inhibition IC50” value is 0.0038 nM. Also, in the assay with human IL4 [1], the affinity, expressed as Kd, was 0.0809 nM; the koff was 0.000163 s⁻¹; the kon worked out at 2.02e+06 M⁻¹ s⁻¹. Also, in the assay with human IL4 [3], the IC50 is 0.0205 nM.

B7: C06_28D4 (designed binder)
chain: B6 chain with K5E, H123N
notes: as for B1
Regarding B7, the “HEK Stat6 Inhibition IC50” value in the assay with human IL4 [2] turned out to be 0.0032 nM. In the assay with human IL4 [1], this molecule yielded a Kd of 0.0856 nM, a koff of 0.000138 s⁻¹ and a kon of 1.62e+06 M⁻¹ s⁻¹. In addition, the IC50 in the assay with human IL4 [3] worked out at 0.0353 nM.

B8: C06_42C7 (designed binder)
chain: B6 chain with H19R
notes: as for B1
Consider B8, for which, in the assay with human IL4 [2], the “HEK Stat6 Inhibition IC50” value came to 0.0068 nM. In the assay with human IL4 [1], binding was characterised by a dissociation constant (Kd) of 0.0978 nM, the koff is 0.000179 s⁻¹ and the kon is 1.83e+06 M⁻¹ s⁻¹. The molecule further had an IC50 with human IL4 [3] of 0.0459 nM.

B9: C06_19C3 (designed binder)
chain: DLGKKLLEAARAGQDDEVRILMANGADVNATDDWGDTLLHLAATDGHLEIVEVLLKNGADVNAIDAMGMTPLHLAAVYGYLEIVEVLLKNGADVNAMDFSGFTPLHLAAFSGHLEIVEVLLKYGADVNAQDKFGKTAFDISIDNGNEDLAEILQKLN
notes: as for B1
For the molecule B9, in the assay with human IL4 [2], the “HEK Stat6 Inhibition IC50” value is 0.0015 nM. In the assay with human IL4 [1], binding was put at a Kd of 0.101 nM, the koff worked out at 9.73e-05 s⁻¹ and the kon turned out to be 962000 M⁻¹ s⁻¹. For the same molecule, in the assay with human IL4 [3], the half-inhibitory concentration (IC50) is 0.0063 nM.

B10: C06_19F8 (designed binder)
chain: DLGKKLLEAARAGQDDEVRILMANGADVNATDDWGDTLLHLAATDGHLEIVEVLLKNGADVNASDSQGLTPLHLAAYYGHLEIVEVLLKYGADVNANDHHGITPLHLAAFAGHLEIVEVLLKYGADVNAQDKFGKTAFDISIDNGNEDLAEILQKLN
notes: as for B1
For B10, the “HEK Stat6 Inhibition IC50” value with human IL4 [2] was 0.0152 nM. In the assay with human IL4 [1], this molecule gave a Kd of 1.41 nM, a koff of 5.18e-05 s⁻¹ and a kon of 36600 M⁻¹ s⁻¹. In the assay with human IL4 [3], the half-maximal inhibitory concentration (IC50) was determined as 0.0176 nM.

B11: C06_54C2 (designed binder)
chain: B9 chain with A108T
notes: as for B1
As to B11, in the assay with human IL4 [2], the “HEK Stat6 Inhibition IC50” value is 0.0032 nM. In addition, in the assay with human IL4 [1], the Kd is 0.4 nM, the koff came out at 0.000161 s⁻¹ and the kon was 403000 M⁻¹ s⁻¹. In addition, the IC50 with human IL4 [3] amounted to 0.0168 nM.

B12: C06_50E5 (designed binder)
chain: B9 chain with V28A
notes: as for B1
With B12, in the assay with human IL4 [2], the “HEK Stat6 Inhibition IC50” value was 0.0035 nM. Also, in the assay with human IL4 [1], the Kd came to 0.174 nM, the koff is 0.000126 s⁻¹ and the kon is 725000 M⁻¹ s⁻¹. The molecule also showed an IC50 in the assay with human IL4 [3] of 0.0148 nM.

B13: C06_17A11 (designed binder)
chain: B9 chain with T31I, D33E, L38P, T44I, D45E, N57Y, I64S
notes: as for B1
Regarding B13, the “HEK Stat6 Inhibition IC50” value with human IL4 [2] is 0.003 nM. Further, in the assay with human IL4 [1], the affinity, expressed as Kd, was 0.136 nM; the koff came to 0.00014 s⁻¹; the kon is 1.03e+06 M⁻¹ s⁻¹. This molecule also yielded an IC50 with human IL4 [3] of 0.0744 nM.

B14: C06_13A10 (designed binder)
chain: DLGKKLLEAARAGQDDEVRILMANGADVNVSDRIGNTPLHLAAVYVHLEIVEVLLKNGADVNALDDDGLTPLHLAAADGHLEIVEVLLKHGADVNATDSHVWTPLHLAAFFGHLEIVEVLLKYGADVNAQDKFGKTAFDISIDNGNEDLAEILQKLN
notes: as for B1
Turning to B14, in the assay with human IL4 [2], the “A549 TARC Inhibition IC50” value was found to be 0.621 nM, the “HEK Stat6 Inhibition IC50” value came out at 0.0054 nM and the “Type 1 Complex inhibition IC50” value was 0.0066 nM. In the assay with human IL4 [1], this molecule had a Kd of 0.0592 nM, a koff of 0.000149 s⁻¹ and a kon of 2.52e+06 M⁻¹ s⁻¹. This molecule also yielded an IC50 with human IL4 [3] of 0.0306 nM.

B15: C06_44C12 (designed binder)
chain: DLGKKLLEAASAGQDDEVHILMANGADVNALDDSGYTPLHLAAEDGHLEIVEVLLKHGADVNAADRMGDTPLHLAAFVGHLEIVEVLLKYGADVNAVDLAGVTPLHVAAFYGHLEIVEVLLKYGADVNAQDKFGKTAFDISIDNGNEDLAEILQKLN
notes: as for B1
Take B15: in the assay with human IL4 [2], the “A549 TARC Inhibition IC50” value was 0.231 nM, the “HEK Stat6 Inhibition IC50” value amounted to 0.0011 nM and the “Type 1 Complex inhibition IC50” value worked out at 0.0017 nM. In the assay with human IL4 [1], this molecule had a dissociation constant (Kd) of 0.0436 nM, a koff of 3.77e-05 s⁻¹ and a kon of 864000 M⁻¹ s⁻¹. Further, the IC50 in the assay with human IL4 [3] amounted to 0.0203 nM.

B16: C06_24H1 (designed binder)
chain: B15 chain with S11R, H19R, L31H, D33N, Y36F, D45I, H57Y, Y123N
notes: as for B1
On to B16, for which the “HEK Stat6 Inhibition IC50” value in the assay with human IL4 [2] stood at 0.241 nM. In the assay with human IL4 [3], the concentration for half-maximal inhibition (IC50) was 0.0717 nM.
